# Measured values: patent US20190002534A1 (UNIVERSITY OF MASSACHUSETTS, published 2019)
# B1: anti-rabies virus human monoclonal antibody 2B10 (antibody, V domains shown)
# VH: EVQLVQSGGGLVHPGGSLRLSCAGSGFTFSYFAMHWVRQAPGKGLEWVSTIGTGGGTYYADSVKGRFTISRDNAKNSLYLQMNSLRAEDMAVYYCARDNALRSFDWLFYSFDYWGQGTLVTVSS
# VL: EIVLTQSPGTLSLSPGERATLSCRASQSISSSYLAWYQQKPGQAPRLLIYGASSRATGIPDRFSGSGSGTDFTLTISRLEPEDFAVYYCQRYGSSYTFGQGTKLEIK
# Experiments:
# Assay in all cases: cell-based or functional assay
# [1] = biological target: G glycoprotein of rabies virus street isolate TN410 (rabies virus, isolate TN410 (Lasiurus …))
# [2] = biological target: T1, G glycoprotein of rabies virus street isolate NC SK (rabies virus, isolate NC SK (Skunk, …))
# [3] = biological target: T2, G glycoprotein of rabies virus street isolate Sonora Dog (rabies virus, isolate Sonora Dog (Dog, …))
# [4] = biological target: G glycoprotein of rabies virus street isolate TN33 (rabies virus, isolate TN33 (Lasiurus …))
# [5] = biological target: T3, G glycoprotein of rabies virus street isolate Myotis (rabies virus, isolate Myotis (Myotis …))
# [6] = biological target: T4, G glycoprotein of rabies virus street isolate WA Bat (rabies virus, isolate WA Bat …)
# [7] = biological target: G glycoprotein of rabies virus street isolate AZ fox 2400 (rabies virus, isolate AZ fox 2400 (Fox …))
# [8] = biological target: G glycoprotein of rabies virus street isolate VA399 (rabies virus, isolate VA399 (Lasiurus …))
# [9] = biological target: T5, G glycoprotein of rabies virus street isolate C1434 (rabies virus, isolate C1434 …)
# [10] = biological target: G glycoprotein of rabies virus street isolate CASK (rabies virus, isolate CASK (Skunk, U.S. …))
# [11] = biological target: T6, G glycoprotein of rabies virus street isolate RAC (rabies virus, isolate RAC (Raccoon, …))
# [12] = biological target: G glycoprotein of rabies virus street isolate FLBat 769 (rabies virus, isolate FLBat 769 …)
# [13] = biological target: T7, G glycoprotein of rabies virus street isolate CO Bat EF6938 (rabies virus, isolate CO Bat EF6938 …)
# [14] = biological target: G glycoprotein of rabies virus street isolate TN269 (rabies virus, isolate TN269 (Lasiurus …))
# [15] = biological target: G glycoprotein of rabies virus street isolate 1625 Bat (rabies virus, isolate 1625 Bat …)
# [16] = biological target: T8, G glycoprotein of rabies virus street isolate PR Mong (rabies virus, isolate PR Mong …)
# [17] = biological target: G glycoprotein of rabies virus street isolate VA1340 (rabies virus, isolate VA1340 (Lasiurus …))
# [18] = biological target: G glycoprotein of rabies virus street isolate CABat (rabies virus, isolate CABat (Myotis …))
# [19] = biological target: T9, G glycoprotein of rabies virus street isolate Bat EF (rabies virus, isolate Bat EF (Eptesicus …))
# [20] = biological target: T10, G glycoprotein of rabies virus street isolate AK fox (rabies virus, isolate AK fox (Fox, …))
# [21] = biological target: G glycoprotein of rabies virus isolate Texas coyote 323R (rabies virus, isolate Texas coyote 323R)
# [22] = biological target: G glycoprotein of rabies virus street isolate TX Fox (rabies virus, isolate TX Fox (Fox …))
# [23] = biological target: G glycoprotein of rabies virus street isolate AZ Bat LC (rabies virus, isolate AZ Bat LC …)
# [24] = biological target: G glycoprotein of rabies virus street isolate TN132 (rabies virus, isolate TN132 (Lasiurus …))
# [25] = biological target: T11, G glycoprotein of rabies virus street isolate TX SK 4380 (rabies virus, isolate TX SK 4380 …)
# [26] = biological target: G glycoprotein of rabies virus street isolate Tadarida (Test B) (rabies virus, isolate Tadarida sp. …)
# [27] = biological target: G glycoprotein of rabies virus street isolate Eptesicus fuscus (Nebraska) (Test B) (rabies virus, isolate Eptesicus fuscus …)
# [28] = biological target: G glycoprotein of rabies virus street isolate Raccoon (Florida) (rabies virus, isolate Raccoon (Florida))
# [29] = biological target: G glycoprotein of rabies virus street isolate SW E fuscus (Test B) (rabies virus, isolate SW E fuscus …)
# [30] = biological target: G glycoprotein of rabies virus street isolate Lasiurus cinereus (Arkansas) (Test B) (rabies virus, isolate Lasiurus cinereus …)
# [31] = biological target: G glycoprotein of rabies virus street isolate Eastern pipistrelle (Test B) (rabies virus, isolate Eastern …)
# [32] = biological target: G glycoprotein of rabies virus street isolate Gray fox (Test B) (rabies virus, isolate Gray fox (Fox …))
# [33] = biological target: G glycoprotein of rabies virus street isolate Skunk (north-central) (Test B) (rabies virus, isolate Skunk …)
# [34] = biological target: G glycoprotein of rabies virus street isolate Skunk south-central (Test B) (rabies virus, isolate Skunk …)
# [35] = biological target: T1, G glycoprotein of rabies virus street …; remark: listed apart in the source
# [36] = biological target: T2, G glycoprotein of rabies virus street …; remark: listed apart in the source
# [37] = biological target: T3, G glycoprotein of rabies virus street …; remark: listed apart in the source
# [38] = biological target: T4, G glycoprotein of rabies virus street …; remark: listed apart in the source
# [39] = biological target: T5, G glycoprotein of rabies virus street …; remark: listed apart in the source
# [40] = biological target: T6, G glycoprotein of rabies virus street …; remark: listed apart in the source
# [41] = biological target: T7, G glycoprotein of rabies virus street …; remark: listed apart in the source
# [42] = biological target: T8, G glycoprotein of rabies virus street …; remark: listed apart in the source
# [43] = biological target: T9, G glycoprotein of rabies virus street …; remark: listed apart in the source
# [44] = biological target: T10, G glycoprotein of rabies virus street …; remark: listed apart in the source
# [45] = biological target: T11, G glycoprotein of rabies virus street …; remark: listed apart in the source
binder,measurement,setting,value
B1,EC50 neutralization by RFFIT (Test A),[1],222 µg/mL
same,EC50 neutralization by RFFIT (Test A),[2],0.004 µg/mL
same,EC50 neutralization by RFFIT (Test A),[3],0.006 µg/mL
same,EC50 neutralization by RFFIT (Test A),[4],1620 µg/mL
same,EC50 neutralization by RFFIT (Test A),[5],0.008 µg/mL
same,EC50 neutralization by RFFIT (Test A),[6],0.009 µg/mL
same,EC50 neutralization by RFFIT (Test A),[7],0.043 µg/mL
same,EC50 neutralization by RFFIT (Test A),[8],864 µg/mL
same,EC50 neutralization by RFFIT (Test A),[9],0.008 µg/mL
same,EC50 neutralization by RFFIT (Test A),[10],0.48 µg/mL
same,EC50 neutralization by RFFIT (Test A),[11],0.03 µg/mL
same,EC50 neutralization by RFFIT (Test A),[12],> 2400 µg/mL
same,EC50 neutralization by RFFIT (Test A),[13],0.01 µg/mL
same,EC50 neutralization by RFFIT (Test A),[14],> 2400 µg/mL
same,EC50 neutralization by RFFIT (Test A),[15],83 µg/mL
same,EC50 neutralization by RFFIT (Test A),[16],0.006 µg/mL
same,EC50 neutralization by RFFIT (Test A),[17],> 2400 µg/mL
same,EC50 neutralization by RFFIT (Test A),[18],0.004 µg/mL
same,EC50 neutralization by RFFIT (Test A),[19],0.015 µg/mL
same,EC50 neutralization by RFFIT (Test A),[20],0.004 µg/mL
same,EC50 neutralization by RFFIT (Test A),[21],1.57 µg/mL
same,EC50 neutralization by RFFIT (Test A),[22],0.02 µg/mL
same,EC50 neutralization by RFFIT (Test A),[23],422 µg/mL
same,EC50 neutralization by RFFIT (Test A),[24],> 2400 µg/mL
same,EC50 neutralization by RFFIT (Test A),[25],0.005 µg/mL
same,EC50 neutralization by RFFIT (Test B),[26],0.011 µg/mL
same,EC50 neutralization by RFFIT (Test B),[27],0.014 µg/mL
same,EC50 neutralization by RFFIT (Test B),[28],0.005 µg/mL
same,EC50 neutralization by RFFIT (Test B),[29],0.005 µg/mL
same,EC50 neutralization by RFFIT (Test B),[30],117 µg/mL
same,EC50 neutralization by RFFIT (Test B),[31],0.033 µg/mL
same,EC50 neutralization by RFFIT (Test B),[32],< 0.0002 µg/mL
same,EC50 neutralization by RFFIT (Test B),[33],0.005 µg/mL
same,EC50 neutralization by RFFIT (Test B),[34],0.002 µg/mL
same,EC50 neutralization by RFFIT,[35],0.004 µg/mL
same,EC50 neutralization by RFFIT,[36],0.006 µg/mL
same,EC50 neutralization by RFFIT,[37],0.008 µg/mL
same,EC50 neutralization by RFFIT,[38],0.009 µg/mL
same,EC50 neutralization by RFFIT,[39],0.008 µg/mL
same,EC50 neutralization by RFFIT,[40],0.03 µg/mL
same,EC50 neutralization by RFFIT,[41],0.01 µg/mL
same,EC50 neutralization by RFFIT,[42],0.006 µg/mL
same,EC50 neutralization by RFFIT,[43],0.015 µg/mL
same,EC50 neutralization by RFFIT,[44],0.004 µg/mL
same,EC50 neutralization by RFFIT,[45],0.005 µg/mL
